Test results taken from patent US11324803B2, “Methods and compositions for treatment of Gaucher Disease via modulation of C5a receptor” (Children's Hospital Medical Center, priority 2015, dated 2022).

Tests used:
mouse C5aR2 (C5L2) = molecular target: T1, mouse C5aR2 (C5L2) (Mus musculus, UniProt Q8BW93); conditions: cited from earlier work
T1 sequence (Q8BW93 1-344): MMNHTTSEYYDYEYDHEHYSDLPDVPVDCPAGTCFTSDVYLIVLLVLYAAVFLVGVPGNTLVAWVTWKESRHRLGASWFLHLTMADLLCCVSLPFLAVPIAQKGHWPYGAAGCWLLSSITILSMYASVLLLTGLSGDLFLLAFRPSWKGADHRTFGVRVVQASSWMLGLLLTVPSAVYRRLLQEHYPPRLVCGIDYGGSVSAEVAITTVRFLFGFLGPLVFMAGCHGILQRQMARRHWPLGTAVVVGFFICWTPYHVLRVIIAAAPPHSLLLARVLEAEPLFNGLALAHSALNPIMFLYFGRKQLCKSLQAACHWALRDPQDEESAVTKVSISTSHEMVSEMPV

C5aR1 = molecular target: T2, C5aR1 (Homo sapiens, UniProt P21730); test: GC-IC-induced CCL18 and pro-inflammatory cytokine production in CBE-treated human MΦ-like cell line U937 with C5aRA; assay type: cell-based; design: endogenous in cells; host or cells: U937 (human macrophage-like cell line), CBE-treated
T2 sequence (P21730 1-350): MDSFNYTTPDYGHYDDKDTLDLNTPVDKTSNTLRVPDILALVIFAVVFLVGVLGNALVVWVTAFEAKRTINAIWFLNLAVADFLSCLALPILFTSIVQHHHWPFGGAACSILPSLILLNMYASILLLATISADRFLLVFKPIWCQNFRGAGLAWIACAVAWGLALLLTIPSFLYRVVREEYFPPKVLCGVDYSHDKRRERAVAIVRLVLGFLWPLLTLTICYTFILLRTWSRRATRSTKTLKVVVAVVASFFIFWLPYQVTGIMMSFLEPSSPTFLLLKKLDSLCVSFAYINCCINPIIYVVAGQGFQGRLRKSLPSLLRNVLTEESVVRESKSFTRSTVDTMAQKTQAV

[1] = CBE-treated U937 cells, GC-IC stimulation, ELISA

B1: Thr Leu Gln Lys Lys Ile Glu Glu Ile Ala Ala Lys Tyr Lys His Ser Val Val Lys Lys Cys Cys Tyr Asp Gly Ala Ala Val Asn Asn Asp Glu Thr Cys Glu Gln Arg Ala Ala Arg Ile Ser Leu Gly Pro Arg Cys Ile Lys Ala … (protein)
chain: TLQKKIEEIAAKYKHSVVKKCCYDGAAVNNDETCEQRAARISLGPRCIKAFTECCVVASQLRANISFKRS
modifications: mutant C5a-(1-66, Cys27A1a) -A8B-Del. 71-73 of human C5a
notes: positions 27 and 68-71 of human C5a mutated and positions 72-74 deleted
Mouse C5aR2 (C5L2)
  affinity to bind mouse C5aR2 (C5L2): high affinity
C5aR1; [1]
  GC-IC-induced production of CCL18: abolished
  GC-IC-induced production of IL1β: abolished
  GC-IC-induced production of IL6: abolished
  GC-IC-induced production of IL23: abolished
  GC-IC-induced production of TNFα: abolished
C5aR1; CBE-treated U937 cells, GC-IC stimulation, ELISA, listed as C5aR antagonist A8^Δ71-73
  GC-IC-induced production of CCL18: marked reduction
C5aR1; human model of Gaucher disease
  MΦs, DC and T cells mediated immune inflammation: significantly reduces
